Test results as given in patent publication US9637543B2, “HER3 antibodies and uses thereof” (THE UAB RESEARCH FOUNDATION, priority 2011, dated 2017).
Entries after “also recorded” stand apart in the source; their conditions may differ.

Legend:
EGFR [1] = molecular target: T1, EGFR (Homo sapiens, UniProt P00533); experiment: EGFR autophosphorylation in pancreatic cancer cell lines; format: cell-based; design: endogenous in cells; host or cells: panel of eight pancreatic cancer cell lines
[2] = molecular target: T2, HER3 (extracellular domain) (Homo sapiens, UniProt P21860); experiment: ELISA binding specificity on recombinant soluble EGFR, HER2, HER3; details: plate coated with 1 μg/ml recombinant soluble EGFR, HER2 or HER3 extracellular domain
T2 construct: recombinant soluble EGFR, HER2, or the extracellular domain of HER3
Description: (§1) The average OD values of triplicates are presented. The values for egFR are superimposed on the values for HER2. […] EGFR, HER2 or HER3-transfected SP 2/0 cells were stained with 1 μg/ml of purified antibody, followed by PE-goat anti-mouse IgG.
(§2) An ELISA plate was coated with 1 μg/ml of recombinant soluble EGFR, HER2, or the extracellular domain of HER3.

[3] = molecular target: T3, HER3-transfected SP 2/0 cells (Homo sapiens, UniProt P21860); experiment: Flow cytometry binding specificity on transfected SP 2/0 cells; details: EGFR, HER2 or HER3 transfected SP2/0 cells, 1 μg/ml purified antibody
T3 construct: expressed in transfected cells; host or cells: SP 2/0 cells
Description: as §1, §2

[4] = test system: N87 human gastric cancer xenograft; experiment: N87 human gastric cancer xenograft model; format: in vivo; details: in combination with lapatinib
[5] = test system: HT29 human colon cancer xenograft; experiment: HT29 human colon cancer xenograft model; format: in vivo
[6] = molecular target: T3, HER3-transfected SP 2/0 cells; experiment: Flow cytometry for blocking of NRG1 binding to HER3; details: 100 ng/ml biotin-conjugated NRG1, increasing antibody concentrations
Text: (§3) The binding of NRG1 to HER3 (vertical axis) was detected by HRP-streptavidin. […] NRG1 binding was detected by PE-streptavidin. The mean fluorescent intensities (MFI) of NRG1 bound are presented.
(§4) The binding of NRG1 to HER3 was detected by HRP-streptavidin. […] Thus, the 1A5 antibody is herein referred to as a ligand-independent antibody. […] Thus, the 3D4 antibody is herein referred to as a ligand-dependent antibody. […] NRG1 binding was detected by PE-streptavidin.

[7] = test system: MKN28 human gastric cancer xenograft; experiment: MKN28 human gastric cancer xenograft model; format: in vivo; details: in combination with lapatinib
HER3 [8] = molecular target: T4, HER3 (Homo sapiens, UniProt P21860); experiment: HER3 autophosphorylation in pancreatic cancer cell lines; format: cell-based; design: endogenous in cells; host or cells: N87, BT474, ZR75-30, Panc 2.03, A549 and a panel of human cancer cell lines; details: single agents
HER3 [9] = molecular target: T4, HER3; experiment: HER3 tyrosine phosphorylation ELISA, antibodies with or without tyrosine kinase inhibitor; format: cell-based; design: endogenous in cells; host or cells: N87; tyrosine phosphorylation of HER3: dose or concentration left out as unconfirmed; details: 24 hours; for tyrosine phosphorylation levels of HER3: 20 μg/ml antibody
recombinant soluble HER3 [10] = molecular target: T5, recombinant soluble HER3 (Homo sapiens, UniProt P21860); experiment: Sandwich ELISA for epitopes (1A5 capture, HRP-3D4 detection); format: binding; details: plate coated with 2 μg/ml 1A5, 200 ng/ml HRP-conjugated 3D4
T5 construct: coated with 1 μg/ml of recombinant soluble HER3
Description: An ELISA plate was coated with 2 μg/ml of purified 1A5 and then incubated with indicated concentrations of recombinant soluble HER3 in the presence of 200 ng/ml HRP-conjugated 3D4. The binding of 3D4 to HER3 was detected by chemiluminescence substrate. The average counts per second of triplicates are presented.
An ELISA plate was coated with 2 μg/ml of purified 1A5 and then incubated with increasing concentrations of HER3 in the presence of 200 ng/ml HRP-conjugated 3D4. The binding of 3D4 antibody to HER3 was detected by chemiluminescence.

[11] = test system: DR5-apoptosis resistant human breast cancer ZR75-1 cell line; experiment: Functional screen for apoptosis of DR5-resistant cells; format: cell-based; details: in the presence of an agonistic DR5-antibody selected from TRA-8 or CTB006
Text: In a functional screen of a hybridoma library made against the DR5-apoptosis resistant human breast cancer ZR75-1 cell line, the 1A5 antibody was identified. […] The target of the 1A5 antibody was identified to be HER3 by immunoprecipitation with the 1A5 antibody and subsequent mass spectrometry analysis.

recombinant soluble HER3 [12] = molecular target: T5, recombinant soluble HER3; experiment: ELISA for blocking of NRG1 binding to HER3; details: 100 ng/ml biotin-conjugated NRG1, increasing antibody concentrations
Text: as §3, §4

HER2 [13] = molecular target: T6, HER2 (Homo sapiens, UniProt P04626); experiment: HER2 tyrosine phosphorylation ELISA, antibodies with or without lapatinib; format: cell-based; design: endogenous in cells; host or cells: N87 gastric cancer cells; ZR75-30 breast cancer cells; details: 24 hours, without lapatinib
HER3 [14] = molecular target: T4, HER3; experiment: Ligand-independent activation (autophosphorylation) of HER3 in cancer cells, ELISA; format: cell-based; design: endogenous in cells; host or cells: N87, BT474, ZR75-30, Panc 2.03
Description: The ELISA plate was coated with 3F8 anti-HER3 antibody (recognizing a different epitope than 1A5 and 3D4) to capture total HER3 (Total HER3, right graph for FIGS. 4A-4D). […] The total HER3 was detected by HRP-conjugated 1E8 anti-HER3 antibody. The tyrosine-phosphorylated HER3 and total HER3 levels were then measured by chemiluminescence.
The ELISA plate was coated with 3F8 anti-HER3 antibody (recognizing a different epitope than the 1A5 antibody) to capture total HER3.

EGFR [15] = molecular target: T1, EGFR; experiment: EGFR tyrosine phosphorylation ELISA, antibodies with or without tyrosine kinase inhibitor; details: 24 hours
HER3 [16] = molecular target: T4, HER3; experiment: Ligand-dependent (NRG1) activation of HER3 in cancer cells, ELISA; format: cell-based; design: endogenous in cells; host or cells: N87, BT474, ZR75-30, Panc 2.03; details: N87, BT474, ZR75-30, Panc 2.03 cells; antibody 24 hours, then 100 pg/ml NRG1 1 hour
Text: (§5) The ELISA plate was coated with 3F8 anti-HER3 antibody (recognizing a different epitope than 1A5 and 3D4) to capture total HER3.
as §5
An ELISA plate was coated with 3F8 anti-HER3 antibody to capture total HER3.

HER2 [17] = molecular target: T6, HER2; experiment: HER2 autophosphorylation in pancreatic cancer cell lines; format: cell-based; design: endogenous in cells
[18] = test system: A549 human lung cancer xenograft; experiment: A549 human lung cancer xenograft model; format: in vivo

T3 sequence (P21860 20-1342): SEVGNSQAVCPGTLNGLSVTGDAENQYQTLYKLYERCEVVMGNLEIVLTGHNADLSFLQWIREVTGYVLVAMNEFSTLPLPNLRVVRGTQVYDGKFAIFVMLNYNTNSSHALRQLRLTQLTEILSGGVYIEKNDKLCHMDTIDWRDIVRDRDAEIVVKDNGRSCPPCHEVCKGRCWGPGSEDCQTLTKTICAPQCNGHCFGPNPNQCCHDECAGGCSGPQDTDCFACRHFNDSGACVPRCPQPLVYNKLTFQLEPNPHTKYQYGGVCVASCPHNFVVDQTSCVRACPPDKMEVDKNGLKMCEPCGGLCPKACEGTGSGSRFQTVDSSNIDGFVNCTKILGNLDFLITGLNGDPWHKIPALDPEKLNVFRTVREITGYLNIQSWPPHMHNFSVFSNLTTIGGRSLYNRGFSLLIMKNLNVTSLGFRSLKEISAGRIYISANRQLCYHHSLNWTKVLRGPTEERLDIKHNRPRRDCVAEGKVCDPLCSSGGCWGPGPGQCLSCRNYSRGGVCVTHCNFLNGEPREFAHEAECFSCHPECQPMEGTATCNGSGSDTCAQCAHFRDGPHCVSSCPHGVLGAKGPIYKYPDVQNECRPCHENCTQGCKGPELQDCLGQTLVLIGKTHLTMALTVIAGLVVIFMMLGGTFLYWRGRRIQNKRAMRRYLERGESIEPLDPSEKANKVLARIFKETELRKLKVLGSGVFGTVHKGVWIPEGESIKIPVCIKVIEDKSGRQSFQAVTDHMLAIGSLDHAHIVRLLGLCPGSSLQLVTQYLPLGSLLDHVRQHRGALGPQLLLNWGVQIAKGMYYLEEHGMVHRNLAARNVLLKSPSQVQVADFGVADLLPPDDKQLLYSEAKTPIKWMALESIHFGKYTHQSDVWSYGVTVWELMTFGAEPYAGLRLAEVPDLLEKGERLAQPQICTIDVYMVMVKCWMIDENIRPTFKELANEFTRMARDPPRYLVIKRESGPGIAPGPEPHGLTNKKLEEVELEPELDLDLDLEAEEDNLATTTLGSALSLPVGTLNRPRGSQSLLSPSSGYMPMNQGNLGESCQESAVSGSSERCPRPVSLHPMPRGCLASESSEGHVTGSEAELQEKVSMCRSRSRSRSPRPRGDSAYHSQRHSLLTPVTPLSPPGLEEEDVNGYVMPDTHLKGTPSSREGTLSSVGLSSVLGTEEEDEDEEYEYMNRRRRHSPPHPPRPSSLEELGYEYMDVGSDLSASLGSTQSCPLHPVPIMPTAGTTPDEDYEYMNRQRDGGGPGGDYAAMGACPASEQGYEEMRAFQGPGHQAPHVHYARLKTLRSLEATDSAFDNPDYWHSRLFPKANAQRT
T4 sequence (P21860 20-1342): as above
T5 sequence (P21860 20-643 limits assumed): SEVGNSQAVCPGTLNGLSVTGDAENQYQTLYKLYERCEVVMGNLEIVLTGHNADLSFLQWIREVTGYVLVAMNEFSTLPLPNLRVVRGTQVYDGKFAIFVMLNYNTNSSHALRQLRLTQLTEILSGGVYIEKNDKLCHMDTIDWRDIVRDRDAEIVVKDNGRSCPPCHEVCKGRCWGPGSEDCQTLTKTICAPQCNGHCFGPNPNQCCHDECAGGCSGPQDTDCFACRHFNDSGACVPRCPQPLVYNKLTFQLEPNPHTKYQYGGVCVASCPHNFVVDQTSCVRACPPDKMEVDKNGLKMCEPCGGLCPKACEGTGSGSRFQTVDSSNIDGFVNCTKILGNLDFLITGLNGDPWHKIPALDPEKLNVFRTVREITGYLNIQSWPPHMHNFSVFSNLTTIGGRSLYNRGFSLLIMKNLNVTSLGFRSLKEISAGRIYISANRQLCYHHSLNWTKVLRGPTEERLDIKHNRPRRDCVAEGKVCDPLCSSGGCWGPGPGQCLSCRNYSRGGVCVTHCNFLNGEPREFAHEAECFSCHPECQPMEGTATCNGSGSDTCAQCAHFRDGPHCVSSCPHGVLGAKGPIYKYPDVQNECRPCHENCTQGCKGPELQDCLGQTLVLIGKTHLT
T2 sequence (P21860 20-643 limits assumed): as above

binding specificity by flow cytometry [3]: specifically bind HER3 | tyrosine phosphorylation levels of HER3, effect of adding Erlotinib (HER3 [9]; A549 cells, 20 μg/ml antibody with 100 nM Erlotinib): enhanced | tyrosine phosphorylation of HER3, effect of adding lapatinib (HER3 [9]; N87 cells, with 100 nM lapatinib): enhanced | tyrosine phosphorylation levels of HER3, effect of adding lapatinib (HER3 [9]; ZR75-30 cells, 20 μg/ml antibody with 100 nM lapatinib): enhanced
B1: 1A5: ligand-independent HER3 antibody; heavy chain variable region SEQ ID NO:1, light chain variable region SEQ ID NO:2 (antibody, V domains shown)
VH: MEWIWIFLFIFSGTAGVHSQVQLQQSGAELARPGASVKLSCKASGYTFTDNYINWMKQRPGQGLEWIGEIYPGSGNTYYNEKFKGKATLTADKSSSTAYMQLSSLTSEESAVYFCARSPNLRLYYFDYWGQGTTLTVSS
VL: MVSTSQLLGLLLFWTSASRCDIVMTQSPATLSVTPGDRVSLSCRASQSINDYLYWYQQKLHESPRLLIKFASHSISGIPSRFSGSGSGSDFTLSINSVEPEDVGVYYCQNGHSFPLTFGAGTKLELK
autophosphorylation of EGFR, 1A5 with erlotinib (EGFR [1]; in combination with erlotinib): capable of enhancing the inhibitory activity of erlotinib; also recorded: able to enhance the inhibitory activity of erlotinib | autophosphorylation of EGFR, 1A5 with lapatinib (EGFR [1]; in combination with lapatinib): not able to enhance the activity of lapatinib | autophosphorylation of EGFR (EGFR [1]; single agents): partially inhibited EGFR autophosphorylation in a HER3-dependent fashion | binding specificity by ELISA [2]: specifically bind HER3; also recorded: specific binding | tumor volume [4]: synergistically reduces tumor volume | tumor volume ([5]; antibodies or lapatinib alone): had the greatest tumor volume reducing effect; also recorded: reduces tumor volume | tumor volume ([5]; in combination with lapatinib): synergistically reduces tumor volume | blocking of NRG1 binding to HER3 (flow cytometry) [6]: failed to block NRG1 binding to HER3; also recorded: does not block ligand binding to HER3 | tumor volume [7]: synergistically reduces tumor volume | autophosphorylation of HER3 (HER3 [8]): inhibited autophosphorylation of HER3 in all HER3 positive cell lines except for Panc1; also recorded: inhibited autophosphorylation of HER3 in all HER3 positive cell lines, except Panc 1 | tyrosine phosphorylation levels of HER3 (HER3 [9]; A549 cells, without Erlotinib): reduced the tyrosine-phosphorylation levels of HER3 | tyrosine phosphorylation of HER3 (HER3 [9]; N87 cells, without lapatinib): reduced the tyrosine phosphorylation of HER3 | tyrosine phosphorylation levels of HER3 (HER3 [9]; ZR75-30 cells, without lapatinib): reduced the tyrosine phosphorylation levels of HER3 | epitopes of HER3 bound (recombinant soluble HER3 [10]): bind different epitopes of HER3; also recorded: recognize different epitopes on HER3 | apoptosis of DR5-resistant ZR75-1 cells [11]: apoptosis of the DR5-resistant ZR75-1 cells was observed | blocking of NRG1 binding to HER3 (ELISA) (recombinant soluble HER3 [12]): failed in block NRG1 binding to HER3; also recorded: does not block ligand binding to HER3 | tyrosine phosphorylation level of HER2 (HER2 [13]; N87 cells): did not affect the level of tyrosine phosphorylation for EGFR or HER2 | tyrosine phosphorylation levels of HER2 (HER2 [13]; ZR75-30 cells, 20 μg/ml antibody): did not affect tyrosine phosphorylation levels of HER2 | inhibition of ligand-independent activation of HER3 in a panel of human cancer cell lines (HER3 [14]; 20 μg/ml 1A5, 24 hours): inhibition of ligand-independent activation of HER3 in a panel of human cancer cells lines | inhibition of autophosphorylation of HER3 (HER3 [14]; N87, BT474, ZR75-30, Panc 2.03 cells, increasing concentrations, 24 hours): capable of inhibiting autophosphorylation of HER3 to a greater extent than the ligand-dependent 3D4 antibody; also recorded: dose-dependent inhibition of ligand-independent activation (autophosphorylation) of HER3 | tyrosine phosphorylation levels of EGFR (EGFR [15]; A549 cells, 20 μg/ml antibody, without Erlotinib): did not affect tyrosine phosphorylation levels of EGFR | tyrosine phosphorylation level of EGFR (EGFR [15]; N87 cells, 20 mg/ml antibody, without lapatinib): did not affect the level of tyrosine phosphorylation for EGFR or HER2 | inhibition of ligand-dependent activation of HER3 (HER3 [16]): capable of inhibiting ligand-dependent activation of HER3 to a lesser extent than the ligand-dependent 3D4 antibody | autophosphorylation of HER2, 1A5 with lapatinib (HER2 [17]; in combination with lapatinib): significantly reduced levels of HER2 autophosphorylation; also recorded: reduced the levels of HER2 autophosphorylation to a greater extent than the 1A5 antibody or lapatinib alone | autophosphorylation of HER2 (HER2 [17]; single agents): partially inhibited autophosphorylation of HER2 | tumor volume ([18]; antibodies without Erbitux): reduced tumor volume | tumor volume ([18]; in combination with Erbitux): reduced tumor volume more than administration of Erbitux alone
